The results in this text go back to patent US20040029178A1, “Novel g protein-coupled receptor proteins and dnas thereof” (priority 2000, published 2004).

Ends that are not written are not given here. * marks the point of attachment. 125I = [125I]*

For assay [1], the target named is T1, TGR26, the rat-derived novel G protein-coupled receptor protein (rat, UniProt Q56UD9 1-329).
T1 construct: Expressed in CHO dhfr- cells from pAK-rGPR7; also called rat TGR26; TGR26 receptor
T1 sequence: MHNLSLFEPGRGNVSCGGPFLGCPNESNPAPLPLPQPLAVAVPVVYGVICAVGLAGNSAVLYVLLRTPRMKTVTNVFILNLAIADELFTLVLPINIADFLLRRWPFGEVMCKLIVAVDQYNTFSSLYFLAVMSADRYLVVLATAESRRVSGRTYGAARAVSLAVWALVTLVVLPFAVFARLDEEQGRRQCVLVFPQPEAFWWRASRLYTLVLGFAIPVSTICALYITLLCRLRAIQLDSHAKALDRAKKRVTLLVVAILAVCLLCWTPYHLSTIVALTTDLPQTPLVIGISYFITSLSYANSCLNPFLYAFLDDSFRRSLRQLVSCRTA
Put plainly: radioligand binding to membrane fraction of TGR26 expressing CHO cells, filtration, gamma counting. As to the method:
(§1) Using [¹²⁵I-Tyr¹⁰]-hGPR8L (1-23) prepared by the method described in Reference Example 15 and a cell membrane fraction prepared from TGR26 expressing cells as described in Example 6, a receptor binding assay was carried out as follows.
(§2) Cell membrane fraction prepared from TGR26 expressing cells was diluted to various concentration with assay buffer (25 mM Tris-HCl, 5 mM EDTA, 0.05% CHAPS (3-[(3-Cholamidopropyl) Dimethyl-Ammonio]-1-Propanesulfonate), 0.1% BSA, 0.5 mM PMSF, 1 μg/ml Pepstatin, 20 μg/ml Leupeptin, 4 μg/ml E-64, pH 7.4), and 200 μl each of the diluent was dispensed into polypropilene test tube (Falcon 2053). In order to determine an amount of maximum binding, 2 μl of DMSO and 2 μl of 7 nM [¹²⁵I-Tyr¹⁰]-hGPR8L (1-23) were added to the membrane fraction solution. Further, in order to determine a non-specific binding, 2 μl of 100 μM hGPR8L (1-23)/DMSO solution and 2 μl of 7 nM [¹²⁵I-Tyr¹⁰]-hGPR8L (1-23) were added to the membrane fraction solution. The reaction was done at 25° C. for 75 minutes, and the reaction mixture was filtered by suction filtration using Whatman glassfilter (GF-F) treated with polyethyleneimine. […] After filtration, a radioactivity remaining on the filter was counted using γ-counter, and an amount of specific binding was estimated by subtracting an amount of non-specific binding from an amount of maximum binding. […]

The target of assay [2] is T1, TGR26, the rat-derived novel G …. As to the kind of experiment: competition with [125I-Tyr10]-hGPR8L (1-23) for membrane fraction of TGR26 expressing CHO cells. The procedure: as §1, §2

Consider WYKHVASPRY(125I)HTVGRAAGLLMGL-OH [[^125I-Tyr^10]-hGPR8L (1-23)], for which the binding result in assay [1] is “binds”.
In assay [2], WYKHVASPRYHTVGRAAGLLMGL-OH (also called human GPR8 ligand (1-23)) [human homologue of GPR8 ligand peptide consisting of 23 residues, hGPR8L (1-23)] had an IC50 of 0.12 nM.
